The supplement of paper PMC12764529
± gives the half width of the 95% confidence interval.

Assays:
[1] = folding stability dG unfold (combined trypsin and chymotrypsin); higher = more stable
Method in brief: (§1)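 Designed mini-proteins (under 80 residues, no cysteine) in a PA-tagged cDNA display construct were digested with trypsin and chymotrypsin. Each protease was used at 11 concentrations (threefold dilutions) plus a no-protease condition, followed by sequencing. K50 was inferred by Bayesian fitting of sequencing counts, and unfolding free energy was derived against a sequence-predicted unfolded-state K50 and a shared folded-state K50, per protease or combined. Only designs with AlphaFold2 dimer inter-PAE above 15 were kept.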

[2] = folding stability dG unfold from trypsin proteolysis; higher = more stable
Method in brief: as §1

[3] = folding stability dG unfold from chymotrypsin proteolysis; higher = more stable
Method in brief: as §1

Row | Sequence | folding stability dG unfold [1] | folding stability dG unfold [2] | folding stability dG unfold [3]
1 | SAGGSAGGMKPISRSTYTNPLNGTTITVTKYPETGEYVITLPDGTTYTVPKSVPITSVEEAIKNSAGGSAGG [r6_72_JUSTAS] | 0.977 ± 0.096 kcal/mol | 0.32 ± 0.066 kcal/mol | 1.32 ± 0.15 kcal/mol
2 | SAGGSAGGMKQYIVTVTLKSPDGTEHTIELETESLDEVKEKLKNLPDPNLELVELKVVPKEELASAGGSAGG [r6_297_JUSTAS] | 2.25 ± 0.13 kcal/mol | 2.39 ± 0.098 kcal/mol | 2.21 ± 0.035 kcal/mol
3 | SAGGSAGGMKVKIVSFDPENQEVVIYDEKTGKEIVVKAKSVEELKAALEKLGLEVEVEVLPPEESAGGSAGG [r6_27_TrROS_Hall] | 3.3 ± 0.39 kcal/mol | 2.99 ± 0.43 kcal/mol | 3.19 ± 0.26 kcal/mol
4 | SAGGSAGGMKVTIEKENGKYRIKVEIEKNGKKIEIEIDMSVEELKKELEKKLNIKIKKVEIEPVSAGGSAGG [r6_762_TrROS_Hall] | 1.5 ± 0.66 kcal/mol | 1.7 ± 0.2 kcal/mol | 1.03 ± 0.53 kcal/mol
5 | SAGGSAGGMKVTISSKGLPATITYYDPRNGTSTTVPINGDPEAAVAALKEATGLDVTDVTVTVESAGGSAGG [r6_763_JUSTAS] | 0.617 ± 0.12 kcal/mol | 0.71 ± 0.04 kcal/mol | 0.52 ± 0.11 kcal/mol
6 | SAGGSAGGMKVTSRETTEITVDTSTGKVTITTTTTLSNGTVVPVGTTTVAISELPEELLSEIESSAGGSAGG [r6_469_JUSTAS] | 0.707 ± 0.042 kcal/mol | 0.308 ± 0.026 kcal/mol | 0.886 ± 0.019 kcal/mol
7 | SAGGSAGGMLEITVPSRREPDSLEVEITITDPSSNTTTTLRRRFPPGDETSPEEIAEKIAAELSSAGGSAGG [r6_234_JUSTAS] | 0.505 ± 0.28 kcal/mol | 0.677 ± 0.13 kcal/mol | 0.332 ± 0.23 kcal/mol
8 | SAGGSAGGMLRIKTKDGKEIEITDDEVRIRFADGKKTVTVPAEKLKEALEAAEKAGMEIVEIEPSAGGSAGG [r6_337_TrROS_Hall] | 1.44 ± 0.16 kcal/mol | 0.00945 ± 0.21 kcal/mol | 1.9 ± 0.057 kcal/mol
9 | SAGGSAGGMLSPEEAEAIARALEAAGRPVTELVVTEHPEGTATVTLTVRYPDGSTETLPLSLPASAGGSAGG [r6_762_JUSTAS] | 1.05 ± 0.2 kcal/mol | 1.27 ± 0.035 kcal/mol | 0.782 ± 0.1 kcal/mol
10 | SAGGSAGGMLTTQETSSDPATNLTTTTTTLTEKDASGNLVPLETTVTTTTSPPAPSTTAPTYAASAGGSAGG [r6_901_JUSTAS] | 1.29 ± 0.089 kcal/mol | 1.89 ± 0.061 kcal/mol | 0.432 ± 0.024 kcal/mol
11 | SAGGSAGGMMYVVKITNEDGETLTIEAESEEEALEAARALAEETGREITRIEVRRLSKEEEEEESAGGSAGG [r6_162_TrROS_Hall] | 2.64 ± 0.064 kcal/mol | 2.28 ± 0.06 kcal/mol | 2.787 ± 0.021 kcal/mol
12 | SAGGSAGGMPIPPEVTEISFSKLPNGTYRLTITTKDGKTLTDVTFPPDLDPETAVEAAIATVAASAGGSAGG [r6_436_JUSTAS] | 1.5 ± 0.053 kcal/mol | 1.45 ± 0.028 kcal/mol | 1.48 ± 0.06 kcal/mol
13 | SAGGSAGGMPLLPLNKEVRVLSVSYIPPNDVVVVRVKGLDNVESTILIPVSLAKNIPISPDSTLSAGGSAGG [r6_910_TrMRF] | 0.733 ± 0.056 kcal/mol | 0.944 ± 0.024 kcal/mol | 0.44 ± 0.059 kcal/mol
14 | SAGGSAGGMPPELSEEEVVRRAVERAVRELGVPLEELPPDWRVDARVERVGDEWLVEVDIELPASAGGSAGG [r6_740_TrMRF] | 1.57 ± 0.083 kcal/mol | 1.33 ± 0.037 kcal/mol | 1.68 ± 0.074 kcal/mol
15 | SAGGSAGGMPTLVVLREVAEKLEEGQRVRVRFRIPGTDEWVEAEVPINDPELVINFENPEVEEASAGGSAGG [r6_401_TrMRF] | 1.33 ± 0.12 kcal/mol | 1.06 ± 0.042 kcal/mol | 1.48 ± 0.097 kcal/mol
16 | SAGGSAGGMPVTPEEARAIAEELRAELGATTVEVEVSPDGRTVTITITSSEDGKVLTRTIEFEASAGGSAGG [r6_550_JUSTAS] | 2.29 ± 0.059 kcal/mol | 2.25 ± 0.091 kcal/mol | 2.33 ± 0.036 kcal/mol
17 | SAGGSAGGMRVRLTFPDGSVVELDLSSLPFSPEEVERAGEEELRALLEEAYPDREIELERVPEPSAGGSAGG [r6_165_JUSTAS] | 2.63 ± 0.051 kcal/mol | 2.13 ± 0.056 kcal/mol | 2.93 ± 0.032 kcal/mol
18 | SAGGSAGGMRYVTVTVTVPSNGKKYTYTKEIAPDEVFNISEAELAAEFGYPDVVVTVSESPIEDSAGGSAGG [r6_722_JUSTAS] | 3.08 ± 0.076 kcal/mol | 2.19 ± 0.074 kcal/mol | 3.39 ± 0.022 kcal/mol
19 | SAGGSAGGMSIKVEVPGPYTVKIYRPDGKPIGEIEGEPGSVIEIDLNVPPGEAKNLIIEVYPTDSAGGSAGG [r6_471_TrMRF] | 2.2 ± 0.24 kcal/mol | 1.61 ± 0.074 kcal/mol | 2.58 ± 0.067 kcal/mol
20 | SAGGSAGGMSITINLPNGVTLTITTGDNDVYPITITYPGGETKTLTVTEPLSSISQVISNIVNSSAGGSAGG [r6_27_JUSTAS] | 3.33 ± 0.042 kcal/mol | 3.38 ± 0.069 kcal/mol | 3.28 ± 0.035 kcal/mol
21 | SAGGSAGGMTFKDPNSNTTASVTEVTPTSVTVTYTLSDGTTRTVTVPTSLVTPDSTVPFTVTSSSAGGSAGG [r6_152_JUSTAS] | 0.892 ± 0.064 kcal/mol | 0.983 ± 0.032 kcal/mol | 0.789 ± 0.16 kcal/mol
22 | SAGGSAGGMTIKIEVNGKIIEIELPEGIKEITKIEIKKDGTITLYIKDNKKKITIKLDKLKKLKSAGGSAGG [r6_369_TrROS_Hall] | 2.34 ± 0.27 kcal/mol | 1.2 ± 0.09 kcal/mol | 3.01 ± 0.1 kcal/mol
23 | SAGGSAGGMTITISTGSSGLTVNITLTPPTGPPVTVTISFDPSELEEFLKELPDYEIESITVEGSAGGSAGG [r6_879_JUSTAS] | 2.8 ± 0.13 kcal/mol | 2.79 ± 0.17 kcal/mol | 2.73 ± 0.15 kcal/mol
24 | SAGGSAGGMTITTTENPNSNLTTYDVTIGNTKVTVTVNPNNPGVIKTEGDNDVPVEVVINAVLSSAGGSAGG [r6_197_JUSTAS] | 1.21 ± 0.056 kcal/mol | 1.69 ± 0.059 kcal/mol | 0.456 ± 0.043 kcal/mol
25 | SAGGSAGGMTPVVVTVTITLPNGEVVEYRVPVAPDELEAAAEAVKEPLEAQGVDVEVEIEAVAASAGGSAGG [r6_721_JUSTAS] | 1.7 ± 0.089 kcal/mol | 1.99 ± 0.065 kcal/mol | 1.5 ± 0.033 kcal/mol
26 | SAGGSAGGMTVEIDLDLEVPDGGVRLERLVVDPERPLVLAFLTLEDGTKRVIPFESLEELLERLSAGGSAGG [r6_547_TrMRF] | 1.23 ± 0.11 kcal/mol | 1.26 ± 0.064 kcal/mol | 1.21 ± 0.032 kcal/mol
27 | SAGGSAGGMTVTIELPGSTYTVELPSSVKSVSELKVLEDGTLVLTFPSTGTTVTVPIPPPGSHHSAGGSAGG [r6_370_JUSTAS] | 1.01 ± 0.11 kcal/mol | 1.03 ± 0.059 kcal/mol | 0.878 ± 0.13 kcal/mol
